In PMC10308326 one finds Kd data, which are given here for 2 sequences.

The test system of data set [1] is TALE tetM_1298 (14 bp recognition) (engineered TALE (AvrBs3 scaffold in pMAL-c2X, repeats replaced; Xanthomonas?)). Description: EMSA. The conditions noted are these: EMSA: 12 mM Tris, 60 mM KCl, 2 mM DTT, 0.1 mg/mL BSA, 30% glycerol, 5 mM MgCl2, 0.2 mM EDTA, RT 1 h then 4 °C 30 min, TALE 0.03-200 nM; GO assay: TALE storage …. (In EMSA bound probe runs differently from free probe, usually more slowly.)

The test system of data set [2] is TALE tetM_611 (16 bp recognition) (engineered TALE (AvrBs3 scaffold in pMAL-c2X, repeats replaced; Xanthomonas?)). Description: EMSA. Conditions: EMSA: 12 mM Tris, 60 mM KCl, 2 mM DTT, 0.1 mg/mL BSA, 30% glycerol, 5 mM MgCl2, 0.2 mM EDTA, RT 1 h then 4 °C 30 min, TALE 0.03-200 nM; GO assay: TALE storage ….

In data set [1], “GCGCCTTTCTGGGCTTCGCG / TTTTTTTTTTTTTTTCGCGAAGCCCAGAAAGGCGC [tetM_1298 EMSA oligo]” registered a Kd of 1.2 nM.
“GCGTGTTCTCTGTTCCCTCGCG / TTTTTTTTTTTTTTTCGCGAGGGAACAGAGAACACGC [tetM_611 EMSA oligo]” yielded a Kd in data set [2] of 4.6 nM.

The Kd is a measure of binding affinity in units of concentration.
